Assay results reported in US20140154256A1 (published 2014).
Read-outs that look alike come from different tables or passages of the source.

Experiments:
human IL-18 [1] = molecular target: T1, human IL-18 (human, UniProt Q14116 37-193); test: SPR (Biacore)
T1 construct: also called hIL-18

human IL-18 [2] = molecular target: T1, human IL-18; test: cell-based or functional assay
human IL-18 [3] = molecular target: T1, human IL-18; test: SPR (Biacore); remark: listed apart in the source
human IL-18 [4] = molecular target: T1, human IL-18; test: SPR (Biacore); remark: listed apart in the source
human IL-18 [5] = molecular target: T1, human IL-18; test: cell-based or functional assay; remark: listed apart in the source
human IL-18 [6] = molecular target: T1, human IL-18; test: cell-based or functional assay; remark: listed apart in the source
mouse IL-1β = mouse IL-1β (mouse, UniProt P10749 118-269); test: cell-based or functional assay
Chain of mouse IL-1β (P10749 118-269 limits assumed): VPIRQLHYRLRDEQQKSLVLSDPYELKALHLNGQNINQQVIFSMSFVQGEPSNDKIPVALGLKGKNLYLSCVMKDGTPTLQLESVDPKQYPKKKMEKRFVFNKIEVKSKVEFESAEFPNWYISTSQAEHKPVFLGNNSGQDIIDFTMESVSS

mouse IL-1α = molecular target: T2, mouse IL-1α (mouse, UniProt P01582 115-270); test: cell-based or functional assay
T2 sequence (looked up): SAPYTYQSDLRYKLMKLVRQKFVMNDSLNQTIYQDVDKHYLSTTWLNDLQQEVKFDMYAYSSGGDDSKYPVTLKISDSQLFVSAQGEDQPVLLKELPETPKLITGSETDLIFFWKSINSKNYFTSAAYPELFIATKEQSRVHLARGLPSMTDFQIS

[7] = molecular target: T3, human CD20 on human B cell line Raji (human, UniProt P11836 1-297); test: preliminary cell surface binding study
T3 construct: whole, on cells; also called hCD20
T3 sequence (looked up): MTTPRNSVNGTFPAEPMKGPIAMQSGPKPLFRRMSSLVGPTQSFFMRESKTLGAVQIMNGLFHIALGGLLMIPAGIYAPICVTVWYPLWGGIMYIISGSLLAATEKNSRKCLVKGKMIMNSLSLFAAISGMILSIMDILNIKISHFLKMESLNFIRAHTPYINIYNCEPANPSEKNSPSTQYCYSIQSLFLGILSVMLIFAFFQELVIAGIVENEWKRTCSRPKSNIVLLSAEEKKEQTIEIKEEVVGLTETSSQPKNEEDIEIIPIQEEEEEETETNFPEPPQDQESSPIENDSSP

human IL-12 [8] = molecular target: T4, human IL-12 (human, UniProt P29459 23-219; P29460 23-328); test: cell-based or functional assay
T4 sequence (looked up) 1: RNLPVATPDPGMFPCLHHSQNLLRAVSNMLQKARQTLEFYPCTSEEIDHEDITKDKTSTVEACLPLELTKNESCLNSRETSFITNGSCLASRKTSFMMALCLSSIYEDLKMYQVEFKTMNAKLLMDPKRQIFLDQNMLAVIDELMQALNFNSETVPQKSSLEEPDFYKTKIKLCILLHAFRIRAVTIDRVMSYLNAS
T4 sequence (looked up) 2: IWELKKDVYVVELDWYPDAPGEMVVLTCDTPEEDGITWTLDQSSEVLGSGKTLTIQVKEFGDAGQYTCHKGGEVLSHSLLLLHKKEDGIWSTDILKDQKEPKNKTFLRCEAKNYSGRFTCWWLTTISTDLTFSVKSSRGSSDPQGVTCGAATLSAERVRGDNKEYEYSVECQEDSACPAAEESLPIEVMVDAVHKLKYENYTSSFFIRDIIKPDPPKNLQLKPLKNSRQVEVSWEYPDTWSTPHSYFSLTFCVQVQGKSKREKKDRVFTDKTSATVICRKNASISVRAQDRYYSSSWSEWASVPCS

human IL-12 [9] = molecular target: T4, human IL-12; test: SPR (Biacore)
human IL-12 [10] = molecular target: T4, human IL-12; test: SPR (Biacore); remark: listed apart in the source
human IL-12 [11] = molecular target: T4, human IL-12; test: SPR (Biacore); remark: listed apart in the source
human IL-12 [12] = molecular target: T4, human IL-12; test: cell-based or functional assay; remark: listed apart in the source
human IL-12 [13] = molecular target: T4, human IL-12; test: cell-based or functional assay; remark: listed apart in the source
[14] = molecular target: T3, human CD20 on human B cell line Raji; test: flow cytometry staining of Raji B cells, FITC goat anti-murine IgG
Description: The anti-CD20/anti-CD3 DVD-Ig was generated as chimeric Ig i.e the constant region was a human constant region. For binding analysis, human T cell line Jurkat and B cell line Raji were blocked with human IgG and then stained with murine anti-hCD3 mAb OKT3, murine anti-hCD20 mAb 1F5, and anti-CD20/anti-CD3 DVD-Ig. Cells were then washed and stained with FITC-labeled goat anti-murine IgG (with no anti-hIgG cross-reactivity). Anti-CD20/CD3 DVD-Ig bound both T and B cells, whereas CD3 and CD20 mAbs bound only T or B cells, respectively. The amino acid sequence of CD20/CD3 DVD-Ig is disclosed in Table 25.

B1: ABT325 (fully human mAb against human IL-18) (antibody, V domains shown)
VH: EVQLVQSGTEVKKPGESLKISCKGSGYTVTSYWIGWVRQMPGKGLEWMGFIYPGDSETRYSPTFQGQVTISADKSFNTAFLQWSSLKASDTAMYYCARVGSGWYPYTFDIWGQGTMVTVSS
VL: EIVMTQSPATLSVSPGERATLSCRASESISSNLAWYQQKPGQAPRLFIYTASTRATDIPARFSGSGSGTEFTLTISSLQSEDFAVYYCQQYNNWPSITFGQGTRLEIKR
notes: Fully human mAb with a Vκ
In the case of B1, the Kd (human IL-18 [1]) is reported as 0.137 nM, the “Potency (IC50, M), KG-1 bioassay (IL-18)” value (human IL-18 [2]) is reported as 6.87e-11 M and the Kd (human IL-18 [3]) is reported as 0.191 nM. The Kd (human IL-18 [4]) was 0.137 nM, the “Potency (IC50), KG-1 Assay” value (human IL-18 [5]) was 0.3 nM and the “IC50 (M), KG-1 bioassay (IFN-γ production)” value (human IL-18 [6]) was 3e-10 M.

B2: mIL-1α/β DVD-Ig (bispecific antibody, mouse IgG2a, kappa)
heavy: EVQLQQSGPELVKPGTSVKMSCKTSGYTFTSYVMHWVKQKPGQGLEWIGYIIPYNDNTKYNEKFKGKATLTSDKSSSTAYMELSSLTSEDSAVYYCARRNEYYGSSFFDYWGQGTTLTVSSAKTTAPSVYPLAPQVILKESGPGILQPSQTLSLTCSFSGFSLSTYGTAVNWIRQPSGKGLEWLAQIGSDDRKLYNPFLKSRITLSEDTSNSQVFLKITSVDTEDSATYYCANGVMEYWGLGTSVTVSSAKTTAPSVYPLAPVCGDTTGSSVTLGCLVKGYFPEPVTLTWNSGSLSSGVHTFPAVLQSDLYTLSSSVTVTSSTWPSQSITCNVAHPASSTKVDKKIEPRGPTIKPCPPCKCPAPNLLGGPSVFIFPPKIKDVLMISLSPIVTCVVVDVSEDDPDVQISWFVNNVEVHTAQTQTHREDYNSTLRVVSALPIQHQDWMSGKEFKCKVNNKDLPAPIERTISKPKGSVRAPQVYVLPPPEEEMTKKQVTLTCMVTDFMPEDIYVEWTNNGKTELNYKNTEPVLDSDGSYFMYSKLRVEKKNWVERNSYSCSVVHEGLHNHHTTKSFSRTPGK
light: DIQMTQSPASLSASVGETVTITCRGSGILHNYLVWYQQKQGKSPQLLVYSAKILADGVPSRFSGSGSGTQYSLKINSLQPEDFGSYYCQHFWSTPFTFGSGTKLEIKRADAAPTVSIFPPSIVMTQTPKFLLVSAGDRVTITCKASQSVNHDVAWYQQMPGQSPKLLIYFASNRYTGVPDRFTGSGYGTDFTFTISTVQAEDLAVYFCQQDYSSPYTFGGGTKLEIKRADAAPTVSIFPPSSEQLTSGGASVVCFLNNFYPKDINVKWKIDGSERQNGVLNSWTDQDSKDSTYSMSSTLTLTKDEYERHNSYTCEATHKTSTSPIVKSFNRNEC
In the case of B2, the “IC50 (M), in vitro potency (assay not described)” value (mouse IL-1β) is reported as 8e-10 M and the “IC50 (M), in vitro potency (assay not described)” value (mouse IL-1α) is reported as 2e-09 M.

B3: anti-CD20/anti-CD3 DVD-Ig (CD20CD3DVD-Ig) (bispecific antibody, human IgG1, kappa)
heavy: not shown
light: QIVLSQSPAILSASPGEKVTMTCRASSSLSFMHWYQQKPGSSPKPWIYATSNLASGVPARFSGSGSGTSYSLTISRVEAEDAATYFCHQWSSNPLTFGAGTKLELKRADAAPTVSIFPPQIVLTQSPAIMSASPGEKVTMTCSASSSVSYMNWYQQKSGTSPKRWIYDTSKLASGVPAHFRGSGSGTSYSLTISGMEAEDAATYYCQQWSSNPFTFGSGTKLEINRTVAAPSVFIFPPSDEQLKSGTASVVCLLNNFYPREAKVQWKVDNALQSGNSQESVTEQDSKDSTYSLSSTLTLSKADYEKHKVYACEVTHQGLSSPVTKSFNRGEC
notes: VCD20-linker-VCD3-constant; chimeric Ig with human constant region; also called Anti-CD20/CD3 DVD-Ig
B3: binds [7].

B4: anti-IL-12 mAb clone 1D4.1 (antibody, V domains shown)
VH: EVTLRESGPALVKPTQTLTLTCTFSGFSLSKSVMGVSWIRQPPGKALEWLAHIYWDDDKYYNPSLKSRLTISKDTSKNQVVLTMTNMDPVDTATYYCARRGIRSAMDYWGQGTTVTVSS
VL: DIVMTQSPDSLAVSLGERATINCKASQSVSNDVAWYQQKPGQPPKLLIYYASNRYTGVPDRFSGSGSGTDFTLTISSLQAEDVAVYYCQQDYNSPWTFGGGTKVEIKR
notes: Parent anti-IL-12 mAb
With B4 the “Potency (IC50, M), PBMC assay (IL-12)” value (human IL-12 [8]) was 4.18e-10 M and the Kd (human IL-12 [9]) was 0.12 nM.

B5: ABT874 (fully human mAb against human IL-12p40) (antibody, V domains shown)
VH: QVQLVESGGGVVQPGRSLRLSCAASGFTFSSYGMHWVRQAPGKGLEWVAFIRYDGSNKYYADSVKGRFTISRDNSKNTLYLQMNSLRAEDTAVYYCKTHGSHDNWGQGTMVTVSS
VL: QSVLTQPPSVSGAPGQRVTISCSGSRSNIGSNTVKWYQQLPGTAPKLLIYYNDQRPSGVPDRFSGSKSGTSASLAITGLQAEDEADYYCQSYDRYTHPALLFGTGTKVTVLG
notes: Fully human mAb with a Vλ
With B5 the Kd (human IL-12 [10]) was 0.065 nM, the Kd (human IL-12 [11]) was 0.0647 nM and the “Potency (IC50), PHA-Blast Assay” value (human IL-12 [12]) was 0.005 nM. The “IC50 (M), IL-12-induced IFN-γ production by PHA blast cells (PBMC assay)” value (human IL-12 [13]) was 5e-12 M.

B6: murine anti-human-CD20 mAb clone 5F1 (antibody, V domains shown)
VH: QVQLRQPGAELVKPGASVKMSCKASGYTFTSYNMHWVKQTPGQGLEWIGAIYPGNGDTSYNQKFKGKATLTADKSSSTAYMQLSSLTSEDSAVYYCARSHYGSNYVDYFDYWGQGTTLTVSS
VL: QIVLSQSPAILSASPGEKVTMTCRASSSLSFMHWYQQKPGSSPKPWIYATSNLASGVPARFSGSGSGTSYSLTISRVEAEDAATYFCHQWSSNPLTFGAGTKLELKR
notes: Murine mAb
B6: binds [14].
